Data taken from paper PMC10877566.

How the values were obtained:
Test in all cases: bioluminescence (BRET) titration
[1] = system: LUMID-2F (NL2F-thiazole orange); settings: apparent, in base pairs; Hill n 0.65 per Fig 3 legend; PBS pH 7.4, 0.1% (w/v) BSA, 5% DMSO, 1 nM sensor, 30 min at room temperature, then NanoGlo substrate 1:1000
[2] = system: LUMID-3C (NL3C-thiazole orange); settings: apparent, in base pairs; Hill n not fixed to 1 per Methods; PBS pH 7.4, 0.1% (w/v) BSA, 5% DMSO, 1 nM sensor, 30 min at room temperature, then NanoGlo substrate 1:1000
[3] = system: LUMID-1F (NL1F-thiazole orange conjugate); settings: apparent, in base pairs; PBS pH 7.4, 0.1% (w/v) BSA, 5% DMSO, 1 nM sensor, 30 min at room temperature, then NanoGlo substrate 1:1000
[4] = system: LUMID-2C triple-lysine (NL2C-3K-thiazole orange); settings: apparent, in base pairs; PBS pH 7.4, 0.1% (w/v) BSA, 5% DMSO, 1 nM sensor, 30 min at room temperature, then NanoGlo substrate 1:1000
[5] = system: LUMID-1C (NL1C-thiazole orange conjugate) C166S;G182C; settings: apparent, in base pairs; PBS pH 7.4, 0.1% (w/v) BSA, 5% DMSO, 1 nM sensor, 30 min at room temperature, then NanoGlo substrate 1:1000
[6] = system: LUMID-2C single-lysine (NL2C-1K-thiazole orange); settings: apparent, in base pairs; PBS pH 7.4, 0.1% (w/v) BSA, 5% DMSO, 1 nM sensor, 30 min at room temperature, then NanoGlo substrate 1:1000
[7] = system: LUMID-2C double-glycine (NL2C-2G-thiazole orange); settings: apparent, in base pairs; PBS pH 7.4, 0.1% (w/v) BSA, 5% DMSO, 1 nM sensor, 30 min at room temperature, then NanoGlo substrate 1:1000
[8] = system: LUMID-2C double-lysine (NL2C-2K-thiazole orange); settings: apparent, in base pairs; PBS pH 7.4, 0.1% (w/v) BSA, 5% DMSO, 1 nM sensor, 30 min at room temperature, then NanoGlo substrate 1:1000

Chain of LUMID-1C (NL1C-thiazole orange conjugate) C166S;G182C (chain, as listed by the source C166S G182C): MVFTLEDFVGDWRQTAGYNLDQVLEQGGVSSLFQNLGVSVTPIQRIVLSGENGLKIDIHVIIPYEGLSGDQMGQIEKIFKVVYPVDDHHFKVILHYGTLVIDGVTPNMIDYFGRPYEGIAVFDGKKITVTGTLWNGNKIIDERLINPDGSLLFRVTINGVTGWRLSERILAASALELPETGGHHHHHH

sheared salmon sperm dsDNA (~2000 bp fragments)
Kd [1]: 43 µM
Kd [2]: 2.1 µM
Kd [3]: 4100 µM
Kd [4]: 21 µM
Kd [5]: 3100 µM
Kd [6]: 142 µM
Kd [7]: 279 µM
Kd [8]: 27 µM
